target: T1, HLA-B*08:01 (human); assay: UV peptide exchange ELISA
T1 construct: MHC monomer first loaded with a UV-sensitive peptide that is cleaved by UV light and exchanged for the test peptide
Excerpt: Candidate peptides for T cell based therapies according to the present invention were further tested for their MHC binding capacity (affinity). The individual peptide-MHC complexes were produced by UV-ligand exchange, where a UV-sensitive peptide is cleaved upon UV-irradiation and exchanged with the peptide of interest as analyzed. Only peptide candidates that can effectively bind and stabilize the peptide-receptive MHC molecules prevent dissociation of the MHC complexes. To determine the yield of the exchange reaction, an ELISA was performed based on the detection of the light chain (β2m) of stabilized MHC complexes. The assay was performed as generally described in Rodenko et al. (Rodenko et al., 2006).
96 well MAXISorp plates (NUNC) were coated over night with 2 ug/ml streptavidin in PBS at room temperature, washed 4× and blocked for 1 h at 37° C. in 2% BSA containing blocking buffer. Refolded HLA-A*02:01/MLA-001 monomers served as standards, covering the range of 15-500 ng/ml. Peptide-MHC monomers of the UV-exchange reaction were diluted 100-fold in blocking buffer. Samples were incubated for 1 h at 37° C., washed four times, incubated with 2 ug/ml HRP conjugated anti-β2m for 1 h at 37° C., washed again and detected with TMB solution that is stopped with […]. Absorption was measured at 450 nm. Candidate peptides that show a high exchange yield (preferably higher than 50%, most preferred higher than 75%) are generally preferred for a generation and production of antibodies or fragments thereof, and/or T cell receptors or fragments thereof, as they show sufficient avidity to the MHC molecules and prevent dissociation of the MHC complexes.

peptide exchange yield [%] | Binder
50 to 75 | KMFYRKDVM [KMFYRKDVM (SEQ ID NO: 136)]
20 to 50 | MIYRKALRL [MIYRKALRL (SEQ ID NO: 145)]
20 to 50 | LLKKIEHA [LLKKIEHA (SEQ ID NO: 15)]
50 to 75 | TQHLTVATL [TQHLTVATL (SEQ ID NO: 138)]
20 to 50 | TQKSVQVL [TQKSVQVL (SEQ ID NO: 149)]
20 to 50 | SLLPFTLSF [SLLPFTLSF (SEQ ID NO: 123)]
20 to 50 | IAVDKPITL [IAVDKPITL (SEQ ID NO: 140)]
50 to 75 | MAPLKMLAL [MAPLKMLAL (SEQ ID NO: 11)]
20 to 50 | HLHLLETSI [HLHLLETSI (SEQ ID NO: 106)]
50 to 75 | MGKFKQCF [MGKFKQCF (SEQ ID NO: 10)]
20 to 50 | IEQIRAVL [IEQIRAVL (SEQ ID NO: 144)]
20 to 50 | YSQLSISL [YSQLSISL (SEQ ID NO: 121)]
50 to 75 | HFHNRHVF [HFHNRHVF (SEQ ID NO: 128)]
20 to 50 | LPINNTHI [LPINNTHI (SEQ ID NO: 160)]
20 to 50 | LPASFPAVL [LPASFPAVL (SEQ ID NO: 155)]
20 to 50 | MEKGLASL [MEKGLASL (SEQ ID NO: 113)]
20 to 50 | ILKEQSSSSF [ILKEQSSSSF (SEQ ID NO: 156)]
20 to 50 | MSTKTTSI [MSTKTTSI (SEQ ID NO: 131)]
20 to 50 | LPKGLKDWQA [LPKGLKDWQA (SEQ ID NO: 107)]
20 to 50 | LPAPYQHQL [LPAPYQHQL (SEQ ID NO: 130)]
20 to 50 | QATPRVRIL [QATPRVRIL (SEQ ID NO: 133)]

peptide exchange yield [%] | Binder
20 to 50 | VLKTLQEL [VLKTLQEL (SEQ ID NO: 154)]
50 to 75 | IPIQAHQI [IPIQAHQI (SEQ ID NO: 132)]
20 to 50 | NALDPLSAL [NALDPLSAL (SEQ ID NO: 112)]
20 to 50 | RSYYHPTNL [RSYYHPTNL (SEQ ID NO: 108)]
20 to 50 | MRILKRFLAC [MRILKRFLAC (SEQ ID NO: 115)]
20 to 50 | IPASHPVLTL [IPASHPVLTL (SEQ ID NO: 109)]
20 to 50 | VGPNGFKSL [VGPNGFKSL (SEQ ID NO: 117)]
50 to 75 | HRILRLPAL [HRILRLPAL (SEQ ID NO: 129)]
50 to 75 | YNLIYSMCL [YNLIYSMCL (SEQ ID NO: 142)]
20 to 50 | YGRIGISLF [YGRIGISLF (SEQ ID NO: 139)]
20 to 50 | NRKPRTPF [NRKPRTPF (SEQ ID NO: 16)]
50 to 75 | IANLRVKNI [IANLRVKNI (SEQ ID NO: 103)]
20 to 50 | PVKPKFYL [PVKPKFYL (SEQ ID NO: 114)]
20 to 50 | QPYRFPQA [QPYRFPQA (SEQ ID NO: 157)]
20 to 50 | VQWKPPAL [VQWKPPAL (SEQ ID NO: 137)]
20 to 50 | MRSSYIREL [MRSSYIREL (SEQ ID NO: 150)]
50 to 75 | HSWTRTSV [HSWTRTSV (SEQ ID NO: 124)]
50 to 75 | MAFVKHLL [MAFVKHLL (SEQ ID NO: 118)]
20 to 50 | TAAEARLSL [TAAEARLSL (SEQ ID NO: 126)]
50 to 75 | IMKKIRESY [IMKKIRESY (SEQ ID NO: 102)]

Second part, the binder before the results:

Binder | peptide exchange yield [%]
DLRNKIIA [DLRNKIIA (SEQ ID NO: 159)] | 20 to 50
FNKLVTEL [FNKLVTEL (SEQ ID NO: 152)] | 20 to 50
ESSAQPTAL [ESSAQPTAL (SEQ ID NO: 122)] | 20 to 50
DIVPPFSAF [DIVPPFSAF (SEQ ID NO: 161)] | 20 to 50
DAMTKHTL [DAMTKHTL (SEQ ID NO: 110)] | 50 to 75
EYLETKRLAF [EYLETKRLAF (SEQ ID NO: 135)] | 10 to 20
FTQNPRVQL [FTQNPRVQL (SEQ ID NO: 116)] | 20 to 50
ELILKRCL [ELILKRCL (SEQ ID NO: 14)] | 50 to 75
HAMDGASHL [HAMDGASHL (SEQ ID NO: 147)] | 20 to 50
ALKLKVAEL [ALKLKVAEL (SEQ ID NO: 1)] | 20 to 50
AQRSEMVTL [AQRSEMVTL (SEQ ID NO: 120)] | 20 to 50
DQRSRATL [DQRSRATL (SEQ ID NO: 134)] | 20 to 50
FPLVTPLL [FPLVTPLL (SEQ ID NO: 125)] | 50 to 75
DVNPVSLQL [DVNPVSLQL (SEQ ID NO: 148)] | 20 to 50
FAFGEPREL [FAFGEPREL (SEQ ID NO: 104)] | 20 to 50
DVIIKGNGL [DVIIKGNGL (SEQ ID NO: 158)] | 20 to 50
GAGLRITAPL [GAGLRITAPL (SEQ ID NO: 111)] | 20 to 50
FQTAHFYL [FQTAHFYL (SEQ ID NO: 146)] | 50 to 75
DRHLTNRVL [DRHLTNRVL (SEQ ID NO: 151)] | 20 to 50
AQLKLVAL [AQLKLVAL (SEQ ID NO: 141)] | 20 to 50
FQRVSSVSF [FQRVSSVSF (SEQ ID NO: 119)] | 50 to 75
HAIPHYVTM [HAIPHYVTM (SEQ ID NO: 153)] | 20 to 50
EPFTRPVL [EPFTRPVL (SEQ ID NO: 13)] | 20 to 50
APLKMLALV [APLKMLALV (SEQ ID NO: 105)] | 20 to 50
EPVIRTVSI [EPVIRTVSI (SEQ ID NO: 127)] | 50 to 75
DFYLRSSAF [DFYLRSSAF (SEQ ID NO: 12)] | 50 to 75
DADLREQAL [DADLREQAL (SEQ ID NO: 143)] | 20 to 50

Reference: US20250145684A1 (IMMATICS BIOTECHNOLOGIES, published 2025)
